# According to article PMC4894380:
# Target: T1, MqsA (Escherichia coli (strain of the protein not stated)) (UniProt Q46864)
# T1 sequence: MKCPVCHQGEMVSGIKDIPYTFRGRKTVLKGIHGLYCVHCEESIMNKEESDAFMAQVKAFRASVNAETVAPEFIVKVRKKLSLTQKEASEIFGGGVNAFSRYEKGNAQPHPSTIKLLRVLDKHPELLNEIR
# Experiment: EMSA
# Conditions: 10 mM Tris-HCl pH 7.5, 50 mM KCl, 1 mM DTT, 1 ug poly(dI.dC), 30-50 fmol labeled probe, ambient temperature, 1 h; 6% gel, 0.5x TBE
sequence,measurement,value
CGTGTATGTGGTGTGCGTTTTTCCATAACCCCCGCCTCCCTGTTACTTTAGTTATAACCTAAAAGGTTAATTACAGCAATGAAAAAGCACCTAAAAGGTTAGTTAGATGTACGGAGATAGTGACCACACAAAACGTATTCTTTAAGGAAAGTGATTGACCATATAAGAAAGTGGCGCATTAGTAGCGCCAGTTTGAAGCAGGAATTTATAAGGGAAGCTGGAGTCAGGCATCAC (double strand) [p-mqsRA (234 bp)],binding,binds
